Reference: patent publication US20050287542, “Protein binding miniature proteins” (published 2005)

How the values were obtained:
G56 (GCN4 bZIP element) [1] = biological target: T1, G56 (GCN4 bZIP element) (UniProt P03069 P03069:226-281); assay: EMSA; conditions: chain copies: 2 inferred; label: 32P
G56 (GCN4 bZIP element) [2] = biological target: T1, G56 (GCN4 bZIP element); assay: EMSA; ddG -2.6 kcal/mol; conditions: chain copies: 2 inferred; label: 32P

T1 sequence (P03069 226-281, one chain of several): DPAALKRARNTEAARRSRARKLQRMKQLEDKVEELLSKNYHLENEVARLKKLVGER

| Binder | binding signal (G56 (GCN4 bZIP element) [1]) | binding signal (G56 (GCN4 bZIP element) [2]) |
| --- | --- | --- |
| CRE24 (dsDNA) DNA 1: AGTGGAGATGACGTCATCTCGTGC DNA 2: GCACGAGATGACGTCATCTCCACT | 118 fold preference over CEBP24 |  |
| CEBP24 (C/EBP24) (dsDNA) DNA 1: AGTGGAGATTGCGCAATCTCGTGC DNA 2: GCACGAGATTGCGCAATCTCCACT |  | 118 fold specificity ratio for CRE24 over CEBP24 |
